Results from PMC11329700.

B1: GST-Dyn1xA-PRR (dynamin 1xA proline-rich region, amino acids 746-864) [rat] / Amphiphysin 1 [rat (endogenous in rat brain synaptosomes)] (parent)
chain 1: NTTTVSTPMPPPVDDSWLQVQSVPAGRRSPTSSPTPQRRAPAVPPARPGSRGPAPGPPPAGSALGGAPPVPSRPGASPDPFGPPPQVPSRPNRAPPGVPSRSGQASPSRPESPRPPFDL
chain 2: MADIKTGIFAKNVQKRLNRAQEKVLQKLGKADETKDEQFEEYVQNFKRQEAEGTRLQRELRGYLAAIKGMQEASMKLTESLHEVYEPDWYGREDVKMVGEKCDVLWEDFHQKLVDGSLLTLDTYLGQFPDIKNRIAKRSRKLVDYDSARHHLEALQSSKRKDESRISKAEEEFQKAQKVFEEFNVDLQEELPSLWSRRVGFYVNTFKNVSSLEAKFHKEIAVLCHKLYEVMTKLGDQHADKAFSIQGAPSDSGPLRIAKTPSPPEEASPLPSPTASPNHTLAPASPAPVRPRSPSQTRKGPPVPPLPKVTPTKELQQENIINFFEDNFVPEINVTTPSQNEVLEVKKEETLLDLDFDPFKPDVTPAGSAAATHSPMSQTLPWDLWTTSTDLVQPASGGSFNDFTQPQDTSLFTMQTDQNMAETEQALPTEPQAEEPPTTAAAPTAGLDLGLEMEEPKEEAAIPPGTDAGETVGTEGSTGEEAEAEKAALPAGEGESPEGAKIDVESTELASSESPQAAELEAGAPQEKVIPSVVIEPASNHEGEEHQETTTGTETREATEDVAPQGPAGEKQELATEPTPLDSQAATPAPAGAVDASLSAGDAAQELPPGFLYKVETLHDFEAANSDELTLQRGDVVLVVPSDSEADQDAGWLVGVKESDWLQYRDLATYKGLFPENFTRHLE
B2: GST-Dyn1xA-PRR (dynamin 1xA proline-rich region, amino acids 746-864) [rat] / Endophilin A1 [rat (endogenous in rat brain synaptosomes)] (parent)
chain 1: B1 chain 1
chain 2: MSVAGLKKQFHKATQKVSEKVGGAEGTKLDDDFKEMERKVDVTSRAVMEIMTKTIEYLQPNPASRAKLSMINTMSKIRGQEKGPGYPQAEALLAEAMLKFGRELGDDCNFGPALGEVGEAMRELSEVKDSLDMEVKQNFIDPLQNLHDKDLREIQHHLKKLEGRRLDFDYKKKRQGKIPDEELRQALEKFDESKEIAESSMFNLLEMDIEQVSQLSALVQAQLEYHKQAVQILQQVTVRLEERIRQASSQPRREYQPKPRMSLEFATGDGTQPNGGLSHTGTPKPAGVQMDQPCCRALYDFEPENEGELGFKEGDIITLTNQIDENWYEGMLHGQSGFFPINYVEILVALPH

Variants of: B1
Assay: GST pull-down, densitometric analysis of Western blots
Conditions: with Amphiphysin 1 [rat (endogenous in rat brain synaptosomes)]; parent: 100; read off a plot

Row | Variant | percent of parent [%]
1 | chain 1 S29E S33E | 98
2 | chain 1 S106E S112E | 91

Variants of: B2
Assay: as above
Conditions: with Endophilin A1 [rat (endogenous in rat brain synaptosomes)]; parent: 100; read off a plot

Row | Variant | percent of parent [%]
3 | chain 1 S29E S33E | 31
4 | chain 1 S106E S112E | 48
